Results from the DeepSol protein solubility set.

Experiment: soluble on expression in E. coli; label from the status in PepcDB or PDB records

| Sequence | soluble on expression in E. coli |
| --- | --- |
| MSLYRELMQKKNVRPYVLMARFGLEKENQRSTREGLLATTEHPTVFGNRSYHPYIQTDFSETQLELITPVANSGTEMLRFLDAIHDVARRSIPEDEMLWPLSMPPQLPTKDEEIKIAKLDQYDAVLYRRYLAKEYGKRKQMVSGIHFNFEYDQALIQQLYDEQSEVTDCKQFKTKVYMKVARNFLRYRWLITYLFGASPVSEDRYFRVYDDQPQEPVRSIRNSTYGYRNHDNVKVSYASLERYLEDIHRMVENGLLSEEKEFYAPVRLRGGKQMSDLPKTGIRYIELRNLDLNPFSRLGIVEDTVDFLHYFMLYLLWTDEKEEADEWVKTGDIFNEQVALGHPHETIKLIAEGDRIFSEMIDMLDALGIRKGKEVVGKYYQQLRNPQDTVSGKMWTIIQENSNSELGNIFGNQYQSMAFERPYQLAGFREMELSTQIFLFDAIQKGLEIEILDEQEQFLKLQHGEHIEYVKNANMTSKDNYVVPLIMENKTVTKKILSAAGFHVPGGEEFSSFIEAQEAHLRYANKAFVVKPKSTNYGLGITIFKEGASLEDFTEALRIAFKEDTAVLIEEFLPGTEYRFFVLDNDVKAIMLRVPANVTGDGKHTVEELVAAKNSDPLRGTNHRAPLELIQLNDLEKLMLKEQGLTIYSVPEKEQIVYLRENSNVSTGGDSIDMTDVIDDSYKQIAIEAVAALGAKICGIDLIIPDKDVKGTRDSLTYGIIEANFNPAMHMHVYPYAGQGRRLTMDVLKLLYPEVVQEGGSHHHHHH | soluble |
| MHMKLDDITYMNPWWEGKEDYHVKQWEKQKVHWEPKWIREISLKPFSLNFVLGPRQVGKTTGIKLLIQKILEENPPESVLYLNLEILPTYRELLDIIREFQELKKEEGIKTGYIFLDEASSLEGWWRGVKPLIDSGLLENDVITVTGSSSLRVRRDIELFPGRRGGGKTLEVMPLSFPEYARVMGLKKHKLEGSKVIKLFEKYIQTGGFPGSINGFPMEDLLGAYIGEFVRFGKSLEIAKEIFSALIRSAPSATSFRALAEMTSGYSYKVVQDYIEFFRDLYILGMAYLKQGNQVMYRREKKFFFRDPLLAKLFSLWSGTEIGKDALYEWIVQEHVFRKFGEIHYFRNSYEIDIIASDMKIEVKAGKAHRKYPRGVKVLEKEDVPFFLIELYNEDC | soluble |
| MINKPNQFLNHLDGLKQHFSDYDSLQKSFKKYLSENQTELNNFFFNQFEKIIVLVKKKEFKTAQERCEEELATPYFSKPLVGFFQSLLQLINHDLIEQKNQQLANMSCEKIVEMVLSDYPNKLNLIHYLLAKEASFVNPNLLQRMTFVLTDLELLELKRFSFFKALNQIPAFKNHKVTYFNSKLKQKFVITLGEFAFPQTDKTKQFFQQLIKKVSQLFLKEPVSCEFAYEIIDALLVSFFPLHPNLEVNHLAKKIHQYVSKIVINEVVDLKDPTTKLIVDTLYEQLDRAIGEEN | soluble |
| DITLSKLAMGGKPTPFGLDESELSNALMLLRDCPQVSLKGFHFHLMSHQLDVERHLALMQRYFQVVKTWQQEFELGELMINLGGGMGINYQNPEQHFPWMEFCDKLEFLIAKEQVQDWTLRFECGRFITAACGYYVMEVLDIKQNLGESYVIARGGTHHFRTPAAQSHDHPFVILKSEQHHEISHPIQHAQATFVGQLCTPKDVLARNQHVAHVDIGDYVVFTLAGAYAWNISHQNFLMHEPPIFHYF | not soluble |
| MGSDKIHHHHHHMTPRSGKTTAGHFRYARYLIESEDENHLVTAYNQEQAYRLFIDGDGTGLMHIFDGNCEIKHDERGDHLLITTPKGNKRVYYKGGGKVNSVGAITGMSLGSVVFCEINLLHMDFIQECFRRTWAAKLRYHLADLNPPAPQHPVIKDVFDVQNTRWTHWTMDDNPILTAERKQNIINSLKKNPYLYKRDVLGQRVMPQGVIYGLFDTEKNVLDALIGEPVEMYFCADGGQSDATSMSCNIVTRVRDNGRISFRLNRVAHYYHSGADTGQVKAMSTYALELKVFIDWCVKKYQMRYTEVFVDPACKSLREELHKLGVFTLGAPNNSKDVSSKAKGIEVGIERGQNIISDGAFYLVNHSEEEYDHYHFLKEIGLYSRDDNGKPIDKDNHAMDEFRYSVNVFVHRYYN | not soluble |
| GMGDSAGLPPIYADKPIELAPAKIITSFPVNTFLENLASAPDGTIFVTNHEVGEIVSITPDGNQQIHATVEGKVSGLAFTSNGDLVATGWNADSIPVVSLVKSDGTVETLLTLPDAIFLNGITPLSDTQYLTADSYRGAIWLIDVVQPSGSIWLEHPMLARSNSESVFPAANGLKRFGNFLYVSNTEKMLLLRIPVDSTDKPGEPEIFVEQTNIDDFAFDVEGNLYGATHIYNSVVRIAPDRSTTIIAQAEQGVIGSTAVAFGQTEGDCTAIYVVTNGGMFLPPPTGVVPANVVRLEVGKPGYPLG | soluble |
| MGSDKIHHHHHHMRNMNIEEIRNSFLSGRPAVLIDEERENEADLVFPAEIATPKVVNFMLSAKGLLCLALDMEEGIKRGFFKLPNNGGETNFLIPVDYKDVFTGITAEERALTARKVAEGLGIENFRYPGHLPLLGGLGLNKRKGHTEASLELVEMAGFKRYALIIEILDDKGYSHNLDYAFHFAKEHDLPLIRIREIWKEFVRRKQLIHVYSKAKLPTKYGDFEIYSFKNDLDFKDHVALVKKPFKGTPLVRVHSKCLTGDTLGSLKCDCGSQLENALRTISQEGGVLIYLDQEGRGIGLREKIRAYEFQDRGLDTVEANKALGFAPDERTYEVAFQILRALGIEKIKLLTNNPSKVKALRELGIEIEDVIPLPGEINRYNFFYLKTKVEKLGHKIPGVEV | not soluble |
| MSLVYMAINAVAGTIREFSPKDIESVYRIAQTSLTEYYTQALILDLHREWPESFMVYTVAGSVVGFIVGSKYSRTEARILLFAVDERFRRMGVGSALMDAFLSLCREQNMLSVRLEVRTDNDEAIRFYKKYGFVITAMLPNYYSDSSNAYTMWRIVEGHHHHHH | not soluble |
| MQEIIFIDEGSFPTPEGVTREWVQGAAENRDEDEKLFSIIREAFQIKIDAGVQVPTYPQFRDMIGQFFDIIKDEKNCHEPYVLKEERATILELEAIDEVAKQYKIETGKTLEVRVCIAGPTDMYYQAFGATAFVDVYDILAKDIEKFIKQAFKTAKNFKIKVIALDEIGLGLNDKIQFSDDEIISALTVASTFARQQGADVEIHVYSPLKYELICETPINVIGFEYAGNPSYIDLLDRKVLEDSDAYAGVGISRTDIFSLISIVNEKYGINAWKDKEYMQKIVTELETPDIIKKRLETAYSVLGDRIKYANPDCGLAFWPDQELAFRLLENTAKAVNEFNAEGIINKAAALEHHHHHH | not soluble |
| MGSDKIHHHHHHMIQTYILKIQSLKWAQREMLKTTLITDTLGHVTSTEPTTTAHVPLPDGSSTPVQIWASDNKDSQLVMLWPGFGMGGYYYRPLAAALNKAGFHVAIGELRGQGQSSAKASRKSQWGYHDLASVDFPLQIAAAKKALDLEEGHPMRFLSHSMGGQISCLFAARPEAEKYNLRAIFGVGAGSPFRPTFSPKMGKRLGLGAVLLGGIGGHIVGFWPGKVLGKDLVGYGRQSGTHMREWRRFHKHNSLDDLTAQDINYVEVMKKVSIPITFSRCPDDEDCPQASIDGLASFVPAAQIKMIEIPEALGHNRWAREPESTVKLFLEQAL | not soluble |
| MGHHHHHHSHDDSSEWGNSFFWNQLLHVPLRQHQVSCCDWLLKIICGVVTIRTVYASHKQAKACLVSRVSCERTGTRFHTRGVNDDGHVSNFVETEQMIYMDDGVSSFVQIRGSVPLFWEQPGLQVGSHHLRLHRGLEANAPAFDRHMVLLKEQYGQQVVVNLLGSRGGEEVLNRAFKKLLWASCHAGDTPMINFDFHQFAKGG | not soluble |
| GAMGSEEKLREVSSQDPVTGLYNRSHFLDLMDAAVQQAVTARKPSTLAYIHLNGYPSLQADHGLSGIDLLLGQLAGLMREQFGEEADLARFGDSIFAALFKGKTPEQAQAALQRLLKKVENHLFELNGRSAQATLSIGVAGLDEKTAKAQDVMNRAHRCADDAARKGGSQIKQYNPAEELAAAAQRGDVIAILQQALETNSFRLLFQPVISLRGDSHENYEVLLRLLNPQGQEVPPAEFLHAAKEAGLAEKIDRWVILNSIKLLAEHRAKGHQTKLFVHLSSASLQDPGLLPWLGVALKAARLPPESLVFQISEADATSYLKQAKQLTQGLATLHCQAAISQFGCSLNPFNALKHLTVQFIKIDGSFVQDLNQVENQEILKGLIAELHEQQKLSIVPFVESASVLATLWQAGATYIQGYYLQGPSQAMDYDFSSGDE | soluble |
| MALLEICCYSMECALTAQQNGADRVELCAAPKEGGLTPSLGVLKSVRQRVTIPVHPIIRPRGGDFCYSDGEFAAILEDVRTVRELGFPGLVTGVLDVDGNVDMPRMEKIMAAAGPLAVTFHRAFDMCANPLYTLNNLAELGIARVLTSGQKSDALQGLSKIMELIAHRDAPIIMAGAGVRAENLHHFLDAGVLEVHSSAGAWQASPMRYRNQGLSMSSDEHADEYSRYIVDGAAVAEMKGIIERHQAKLEHHHHHH | soluble |
| MAHHHHHHMKRSRFDGKAPSFAPAVTMHPQQQQRIEERGANNRVVVNSPYGCSRARYGWGMPFHTPLLAYVPGCPAIHIGISSLSGVPGRDRRMKTLFAQYAKKFNSLEHCYTFHNMGEETMWKNWRDMCASQLVASSSHSPASLGCVQTSDNGNQKSPPFIFSIKANQYLTHTRMLAIDDKSEEHIMHFFVNRCSILGRHLGPVLLQLPPQFQKNHVNMERIEAVAARIPKAFSVAVEFRHRSWYDEGVYALLRRLGWALVVAHHHDDPTASVHVDTGVDFMYVRLHGPIGLHIGDYGPVILSQWAERVVDYICGGVVSAAAADQSQPMAVNAHGREVYFFFNNSDSHVGGTTSSTVDATFLAQRVGELLAEKSRSCMVADSQSNSCSDVDVVTIISE | soluble |
| KKQITVLDLHPGAGKTRRILPQIIKEAINRRLRTAVLAPTRVVAAEMAEALRGLPIRYQTSAVAREHNGNEIVDVMCHATLTHRLMSPHRVPNYNLFVMDEAHFTDPASIAARGYISTRVELGEAAAIFMTATPPGTSDPFPESNAPISDLQTEIPDRAWNSGYEWITEYIGKTVWFVPSVKMGNEIALCLQRAGKKVIQLNRKSYETEYPKCKNDDWDFVVTTDISEMGANFKASRVIDSRKSVKPTIITEGEGRVILGEPSAVTAASAAQRRGRTGRNPSQAGDEYCYGGHTNEDDSNCAHWTEARIMLDNINMPNGLIAQFYQPEREKVYTMDGEYRLRGEERKNFLELLRTADLPVWLAYKVAAAGVSYHDRRWCFDGPRTNTILEDNNEVEVITKLGERKILRPRWIDARVYSDHQALKSFKDFASGKR | soluble |
| MSSRKNFSRLTWFRKQRKAVVSSNDKKMPNGILEEQEQQRVMLLSRSPSGPKKFFPIPVEHLEEEIRVRSADDCKRFREEFNSLPSGHIQGTFELANKEENREKNRYPNILPNDHCRVILSQVDGIPCSDYINASYIDGYKEKNKFIAAQGPKQETVNDFWRMVWEQRSATIVMLTNLKERKEEKCYQYWPDQGCWTYGNIRVCVEDCVVLVDYTIRKFCIHPQLPDSCKAPRLVSQLHFTSWPDFGVPFTPIGMLKFLKKVKTLNPSHAGPIVVHCSAGVGRTGTFIVIDAMMDMIHSEQKVDVFEFVSRIRNQRPQMVQTDVQYTFIYQALLEYYLYGDTELDVSSLERHLQTLHSTATHFDKIGLEEEFRKLTNVRIMKENMRTGNLPANMKKARVIQIIPYDFNRVILSMKRGQEFTDYINASFIDGYRQKDYFMATQGPLAHTGEDFWRMVWEWKSHTIVMLTEVQEREQDKCYQYWPTEGSVTHGDITIEIKSDTLSEAISVRDFLVTFKQPLARQEEQVRMVRQFHFHGWPEVGIPAEGKGIIDLIAAVQKQQQQTGNHPITVHCSAGAGRTGTFIALSNILERVKAEGLLDVFQAVKSLRLQRPHMVQTLEQYEFCYKVVQDFIDIFSDYANFK | soluble |
| MNRGSLYITATPIGNREDITLRAIDTLRSVDLIAAEDTRHSKKLLEHYGIKTPLLSLHEHNEAARATLLCEKLKQGLNVALISDAGTPLISDPGYRLVNAVREAGIEVVPIPGACAAIAALVASGLPTDRFIFEGFIPSKGEVRRKKLEDLKNQRRTIIFYESVHRIVNLIDLLNEIFGTERRATIARELTKKFETIHTATLAELKNWINENPVQEKGEFVVIVAGQTEKLTEINEEHQQLLTLLLSELSLKQAVSLATKISGLPRKKLYALALTIQQHLPHHRY | soluble |
